± gives the uncertainty stated by the source.
Assay: self-splicing fitness, log relative to wild type (ln ratio); higher = more splicing; Tetrahymena group I intron in knt gene, E. coli kanamycin selection, DiMSum; sequences stand for … in CUCUCU…GGAGGGAAAAGUUAUCAGGCAUGCACCUGGUAGCUAGUCUUUAAACCAAUAGAUUGCAUCGGUUUAAAAGGCAAGACCGUCAAAUUGCGGGAAAGGGGUCAACAGCCGUUCAGUACCAAGUCUCAGGGGAAACUUUGAGAUGGCCUUGCAAAGGGUAUGGUAAUAAGCUGACGGACAUGGUCCUAACCACGCAGCCAAGUCCUAAGUCAACAGAUCUUCUGUUGAUAUGGAUGCAGUUCACAGACUAAAUGUCGGUCGGGGAAGAUGUAUUCUUCUCAUAAGAUAUAGUCGGACCUCUCCUUAAUGGGAGCUAGCGGAUGAAGUGAUGCAACACUGGAGCCGCUGGGAACUAAUUUGUAUGCGAAAGUAUAUUGAUUAGUUUUGGAGUACUCGUGGUCG
Method in brief: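 Fitness was computed with DiMSum as the error-weighted combination of replicate fold changes, kanamycin versus none, each normalised to wild type. The library randomised all eight intron nucleotides of the P1ex region, with the intron placed in the knt kanamycin-resistance gene on pET-22b(+) in E. coli BL21(DE3). Six replicate transformations were grown overnight at 37°C or 30°C on LB agar with or without 25 μg/mL kanamycin, plus 100 μg/mL carbenicillin, 50 μM IPTG and 0.2% rhamnose. Pooled colonies were amplicon-sequenced on an Illumina HiSeq 2500.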

Sequence	self-splicing fitness (ln) (30 °C)	self-splicing fitness (ln) (37 °C)
CUCCAGCAAUAUUACGAAGG	-3.5 ± 0.32	-2.13 ± 0.23
CUCCAGCAAUAUUACGACAC	-2.74 ± 0.33	-1.12 ± 0.34
CUCCAGCAAUAUUACGAUCU	-4.21 ± 0.27	-1.16 ± 0.12
CUCCAGCAAUAUUACGAUUA	-2.63 ± 0.32	-2.37 ± 0.37
CUCCAGCAAUAUUACGCAGA	-3.72 ± 0.35	-1.94 ± 0.2
CUCCAGCAAUAUUACGCUAG	-3.91 ± 0.17	-2.7 ± 0.2
CUCCAGCAAUAUUACGGAGC	-1.83 ± 0.12	-2.69 ± 0.2
CUCCAGCAAUAUUACGGAGU	-4.09 ± 0.31	-1.28 ± 0.19
CUCCAGCAAUAUUACGGAUC	-1.86 ± 0.099	-1.47 ± 0.14
CUCCAGCAAUAUUACGGAUU	-2.59 ± 0.26	-2.07 ± 0.18
CUCCAGCAAUAUUACGGCCA	-2.94 ± 0.25	–
CUCCAGCAAUAUUACGGCUU	-1.73 ± 0.19	-2.76 ± 0.31
CUCCAGCAAUAUUACGGGAU	-2.92 ± 0.11	-1.18 ± 0.1
CUCCAGCAAUAUUACGGUUU	-2.02 ± 0.11	-2.39 ± 0.19
CUCCAGCAAUAUUACGUAAU	-4.88 ± 0.23	-3.21 ± 0.2
CUCCAGCAAUAUUACGUCAA	-3.08 ± 0.19	-3.24 ± 0.23
CUCCAGCAAUAUUACGUCGA	-4.42 ± 0.27	-2.73 ± 0.17
CUCCAGCAAUAUUACGUGUA	-2.95 ± 0.14	-2.82 ± 0.19
CUCCAGCAAUAUUACGUUAC	-3.6 ± 0.18	-2.42 ± 0.2
CUCCAGCAAUAUUACGUUCA	-3.32 ± 0.29	-2.85 ± 0.25
CUCCAGCAAUAUUACGUUGU	-4.22 ± 0.15	-3.49 ± 0.21
CUCGAGCAAUAUUACGAACA	-1.56 ± 0.41	-2.03 ± 0.49
CUCGAGCAAUAUUACGACAC	-2.69 ± 0.27	–
CUCGAGCAAUAUUACGACAU	-3.527 ± 0.027	-2.07 ± 0.038
CUCGAGCAAUAUUACGAUAG	-1.11 ± 0.15	-0.333 ± 0.15

Sequence	self-splicing fitness (ln) (30 °C)	self-splicing fitness (ln) (37 °C)
CUCGAGCAAUAUUACGAUCG	–	-1.71 ± 0.28
CUCGAGCAAUAUUACGCAAA	-2.55 ± 0.33	-3.66 ± 0.46
CUCGAGCAAUAUUACGCAGA	-2.04 ± 0.35	-0.967 ± 0.17
CUCGAGCAAUAUUACGCCUU	-2.45 ± 0.15	-2.72 ± 0.37
CUCGAGCAAUAUUACGCGAA	-3.3 ± 0.34	-2.41 ± 0.37
CUCGAGCAAUAUUACGCGGA	-3.05 ± 0.24	-2.63 ± 0.22
CUCGAGCAAUAUUACGCGUA	-2.97 ± 0.48	-1.59 ± 0.23
CUCGAGCAAUAUUACGCUGC	-3.61 ± 0.42	–
CUCGAGCAAUAUUACGGAGU	-3.07 ± 0.22	-2.57 ± 0.31
CUCGAGCAAUAUUACGGGUU	-3.47 ± 0.14	-3.05 ± 0.16
CUCGAGCAAUAUUACGUACU	-2.68 ± 0.2	-3.11 ± 0.33
CUCGAGCAAUAUUACGUAGA	-3.34 ± 0.21	-1.64 ± 0.14
CUCGAGCAAUAUUACGUCGC	-4.4 ± 0.36	-1.12 ± 0.19
CUCGAGCAAUAUUACGUCGU	-1.77 ± 0.26	-1.88 ± 0.37
CUCGAGCAAUAUUACGUCUC	-2.55 ± 0.23	-2.5 ± 0.39
CUCGAGCAAUAUUACGUGGG	-3.08 ± 0.14	-2.88 ± 0.2
CUCGAGCAAUAUUACGUGGU	-3.41 ± 0.16	-2.49 ± 0.18
CUCGAGCAAUAUUACGUUAG	-3.81 ± 0.21	-1.37 ± 0.14
CUCGAGCAAUAUUACGUUAU	-3.99 ± 0.36	-2.72 ± 0.3
CUCGAGCAAUAUUACGUUGU	-4.17 ± 0.18	-2.07 ± 0.14
CUCUAGCAAUAUUACGAAUU	-3.81 ± 0.29	-3.19 ± 0.4
CUCUAGCAAUAUUACGACUA	–	-1.71 ± 0.28
CUCUAGCAAUAUUACGCCCA	-2.25 ± 0.4	–
CUCUAGCAAUAUUACGCCUG	-2.33 ± 0.36	–
CUCUAGCAAUAUUACGCGGA	-3.1 ± 0.4	-1.9 ± 0.34

Source: the supplement of paper PMC7877785
